Measured values as given in IntAct's records for PubMed 19487680.

Key:
rar1_arath RAR1 = rar1_arath RAR1 (UniProt Q9SE33)
sgt1b_arath SGT1B = sgt1b_arath SGT1B (UniProt Q9SUT5)
sgt1b_arath SGT1B, sequence (Q9SUT5 whole entry): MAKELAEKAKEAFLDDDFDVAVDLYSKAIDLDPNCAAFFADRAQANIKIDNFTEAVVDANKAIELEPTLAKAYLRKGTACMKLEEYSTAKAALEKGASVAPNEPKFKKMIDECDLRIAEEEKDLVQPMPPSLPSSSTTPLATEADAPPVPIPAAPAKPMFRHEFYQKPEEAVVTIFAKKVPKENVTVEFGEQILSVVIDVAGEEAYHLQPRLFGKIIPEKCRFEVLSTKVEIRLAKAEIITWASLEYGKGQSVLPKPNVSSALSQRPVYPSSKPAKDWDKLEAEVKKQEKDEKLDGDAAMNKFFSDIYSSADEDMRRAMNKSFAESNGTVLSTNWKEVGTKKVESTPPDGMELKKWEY

rar1_arath RAR1, sequence (Q9SE33 whole entry): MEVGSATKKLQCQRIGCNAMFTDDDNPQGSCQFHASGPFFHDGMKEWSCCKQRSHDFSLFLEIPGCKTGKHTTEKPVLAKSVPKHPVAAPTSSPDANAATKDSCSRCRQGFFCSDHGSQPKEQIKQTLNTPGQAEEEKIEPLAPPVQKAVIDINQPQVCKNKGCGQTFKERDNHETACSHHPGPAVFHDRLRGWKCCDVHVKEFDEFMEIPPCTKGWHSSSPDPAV
Heat shock protein 90-2 (Arabidopsis thaliana (Mouse-ear cress)), P55737 R337C, sequence (P55737 whole entry R337C): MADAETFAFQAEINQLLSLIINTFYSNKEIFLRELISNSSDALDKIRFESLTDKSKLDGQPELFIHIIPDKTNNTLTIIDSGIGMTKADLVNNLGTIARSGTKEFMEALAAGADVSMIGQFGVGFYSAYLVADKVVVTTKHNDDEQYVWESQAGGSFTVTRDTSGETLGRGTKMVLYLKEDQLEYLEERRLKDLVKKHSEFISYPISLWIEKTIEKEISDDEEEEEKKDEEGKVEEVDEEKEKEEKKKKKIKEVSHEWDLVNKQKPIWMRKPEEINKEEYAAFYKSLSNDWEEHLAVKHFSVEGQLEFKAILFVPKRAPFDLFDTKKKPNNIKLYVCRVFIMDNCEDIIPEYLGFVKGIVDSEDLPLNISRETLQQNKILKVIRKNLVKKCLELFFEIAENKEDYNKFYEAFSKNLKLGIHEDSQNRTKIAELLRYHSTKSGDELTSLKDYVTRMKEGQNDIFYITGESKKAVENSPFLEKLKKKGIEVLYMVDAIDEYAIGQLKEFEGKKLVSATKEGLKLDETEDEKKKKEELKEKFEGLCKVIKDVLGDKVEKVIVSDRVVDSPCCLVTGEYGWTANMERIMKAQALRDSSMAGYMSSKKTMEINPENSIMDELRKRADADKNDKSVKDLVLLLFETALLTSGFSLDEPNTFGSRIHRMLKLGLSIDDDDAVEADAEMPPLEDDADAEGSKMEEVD
Heat shock protein 90-2 (Arabidopsis thaliana (Mouse-ear cress)), P55737 D80N, sequence (P55737 whole entry D80N): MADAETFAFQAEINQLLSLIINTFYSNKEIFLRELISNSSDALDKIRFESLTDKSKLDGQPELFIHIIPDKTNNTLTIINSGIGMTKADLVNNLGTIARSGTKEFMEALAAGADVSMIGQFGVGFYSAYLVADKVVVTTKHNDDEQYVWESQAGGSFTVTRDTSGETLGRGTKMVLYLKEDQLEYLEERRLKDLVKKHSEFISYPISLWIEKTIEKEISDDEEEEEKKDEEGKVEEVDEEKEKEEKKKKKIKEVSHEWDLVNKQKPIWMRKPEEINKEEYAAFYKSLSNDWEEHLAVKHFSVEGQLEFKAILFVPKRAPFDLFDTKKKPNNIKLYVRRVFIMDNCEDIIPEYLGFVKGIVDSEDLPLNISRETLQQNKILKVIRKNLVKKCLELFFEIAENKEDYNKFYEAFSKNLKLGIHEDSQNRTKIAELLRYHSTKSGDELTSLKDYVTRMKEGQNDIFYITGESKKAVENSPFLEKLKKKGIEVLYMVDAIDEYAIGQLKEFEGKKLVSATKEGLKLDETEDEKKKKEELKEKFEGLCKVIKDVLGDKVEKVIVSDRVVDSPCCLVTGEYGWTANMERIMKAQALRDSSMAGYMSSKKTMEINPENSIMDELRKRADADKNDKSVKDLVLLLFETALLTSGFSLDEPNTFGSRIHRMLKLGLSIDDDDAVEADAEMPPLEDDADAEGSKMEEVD
Heat shock protein 90-2 (Arabidopsis thaliana (Mouse-ear cress)), P55737 G95E, sequence (P55737 whole entry G95E): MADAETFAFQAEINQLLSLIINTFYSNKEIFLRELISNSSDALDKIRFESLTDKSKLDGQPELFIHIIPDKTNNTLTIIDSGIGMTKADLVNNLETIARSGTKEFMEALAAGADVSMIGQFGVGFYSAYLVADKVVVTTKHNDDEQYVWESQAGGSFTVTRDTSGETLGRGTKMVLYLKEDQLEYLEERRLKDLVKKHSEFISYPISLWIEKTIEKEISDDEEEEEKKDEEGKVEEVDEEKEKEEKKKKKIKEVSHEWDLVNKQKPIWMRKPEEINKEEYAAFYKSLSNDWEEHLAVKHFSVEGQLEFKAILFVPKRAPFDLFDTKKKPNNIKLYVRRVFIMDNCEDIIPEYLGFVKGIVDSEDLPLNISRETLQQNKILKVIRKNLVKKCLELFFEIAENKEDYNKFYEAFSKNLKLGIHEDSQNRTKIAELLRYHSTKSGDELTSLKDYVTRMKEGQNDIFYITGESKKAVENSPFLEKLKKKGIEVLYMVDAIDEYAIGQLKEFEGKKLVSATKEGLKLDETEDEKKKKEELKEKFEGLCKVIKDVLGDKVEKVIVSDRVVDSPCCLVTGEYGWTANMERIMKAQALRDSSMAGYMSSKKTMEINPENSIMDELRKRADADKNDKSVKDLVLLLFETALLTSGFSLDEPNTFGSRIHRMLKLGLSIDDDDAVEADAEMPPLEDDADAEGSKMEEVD
Heat shock protein 90-2 (Arabidopsis thaliana (Mouse-ear cress)), P55737 A42T, sequence (P55737 whole entry A42T): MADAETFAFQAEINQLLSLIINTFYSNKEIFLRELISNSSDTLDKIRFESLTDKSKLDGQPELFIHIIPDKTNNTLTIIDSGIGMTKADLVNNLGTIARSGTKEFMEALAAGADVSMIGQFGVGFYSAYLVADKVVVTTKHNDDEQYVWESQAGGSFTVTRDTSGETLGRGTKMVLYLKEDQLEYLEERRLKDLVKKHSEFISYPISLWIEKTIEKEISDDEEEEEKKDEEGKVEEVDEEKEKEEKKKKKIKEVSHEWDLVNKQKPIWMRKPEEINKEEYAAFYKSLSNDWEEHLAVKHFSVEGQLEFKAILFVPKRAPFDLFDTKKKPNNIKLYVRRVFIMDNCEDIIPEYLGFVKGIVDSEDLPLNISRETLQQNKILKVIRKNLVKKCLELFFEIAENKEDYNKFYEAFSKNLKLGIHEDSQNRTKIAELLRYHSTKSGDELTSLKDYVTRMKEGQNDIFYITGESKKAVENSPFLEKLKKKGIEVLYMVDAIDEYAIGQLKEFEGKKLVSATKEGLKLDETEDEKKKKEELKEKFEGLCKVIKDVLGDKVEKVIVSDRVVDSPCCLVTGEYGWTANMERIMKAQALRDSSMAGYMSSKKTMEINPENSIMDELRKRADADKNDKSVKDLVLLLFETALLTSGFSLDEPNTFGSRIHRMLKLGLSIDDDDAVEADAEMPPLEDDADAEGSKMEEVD
Heat shock protein 90-2 (Arabidopsis thaliana (Mouse-ear cress)), P55737 S100F, sequence (P55737 whole entry S100F): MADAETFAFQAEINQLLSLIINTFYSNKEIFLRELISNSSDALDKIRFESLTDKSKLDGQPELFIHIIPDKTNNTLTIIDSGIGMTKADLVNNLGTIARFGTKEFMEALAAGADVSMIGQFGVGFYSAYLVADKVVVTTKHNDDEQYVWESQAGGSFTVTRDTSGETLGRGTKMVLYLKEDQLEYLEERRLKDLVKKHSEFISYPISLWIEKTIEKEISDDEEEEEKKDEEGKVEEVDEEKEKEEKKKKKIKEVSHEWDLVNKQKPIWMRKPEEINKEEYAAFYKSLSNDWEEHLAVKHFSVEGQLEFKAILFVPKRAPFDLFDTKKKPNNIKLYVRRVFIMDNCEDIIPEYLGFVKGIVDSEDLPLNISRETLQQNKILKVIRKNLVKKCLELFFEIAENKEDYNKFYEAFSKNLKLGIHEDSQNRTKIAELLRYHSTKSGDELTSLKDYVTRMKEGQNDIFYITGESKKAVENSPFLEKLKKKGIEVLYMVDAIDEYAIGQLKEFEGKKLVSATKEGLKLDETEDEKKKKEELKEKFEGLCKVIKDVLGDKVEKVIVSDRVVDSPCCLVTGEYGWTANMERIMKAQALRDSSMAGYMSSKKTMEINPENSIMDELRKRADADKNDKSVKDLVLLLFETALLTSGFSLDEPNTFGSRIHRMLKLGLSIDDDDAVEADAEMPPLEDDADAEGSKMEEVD

effect of a mutation on the interaction (rar1_arath RAR1) | effect of a mutation on the interaction (sgt1b_arath SGT1B) | Substance
disrupting interaction strength | disrupting interaction strength | Heat shock protein 90-2 (Arabidopsis thaliana (Mouse-ear cress)), P55737 A42T
disrupting interaction strength | disrupting interaction strength | Heat shock protein 90-2 (Arabidopsis thaliana (Mouse-ear cress)), P55737 D80N
disrupting interaction strength | decreasing interaction strength | Heat shock protein 90-2 (Arabidopsis thaliana (Mouse-ear cress)), P55737 R337C

Second part, the substance before the results:

Substance | effect of a mutation on the interaction (rar1_arath RAR1) | effect of a mutation on the interaction (sgt1b_arath SGT1B)
Heat shock protein 90-2 (Arabidopsis thaliana (Mouse-ear cress)), P55737 G95E | decreasing interaction strength | disrupting interaction strength
Heat shock protein 90-2 (Arabidopsis thaliana (Mouse-ear cress)), P55737 S100F | – | disrupting interaction strength
